In general, stoichiometry N refers to the number of molecules, sites or subunits per partner or assembly.

For experiment [1], the target named is ChAdOx1 fiber-knob protein (chimpanzee adenovirus Y25 (ChAdV-Y25)). As to the kind of experiment: crystal structure.
The target of experiment [2] is ChAdOx1 pIX (chimpanzee adenovirus Y25 (ChAdV-Y25)). As to the kind of experiment: cryo-EM structure.
The target of experiment [3] is ChAdOx1 hexon protein (chimpanzee adenovirus Y25 (ChAdV-Y25)). As to the kind of experiment: cryo-EM structure.
Experiment [4] addresses ChAdOx1 penton protein (chimpanzee adenovirus Y25 (ChAdV-Y25)). Nature of the experiment: cryo-EM structure.

In experiment [1], “ChAdOx1 fiber-knob protein (domain or fragment)” had a stoichiometry N of 3.

Substance ChAdOx1 pIX (natural protein) showed a stoichiometry N in experiment [2] of 4.

For the substance ChAdOx1 hexon protein (natural protein), the stoichiometry N in experiment [3] turned out to be 3.

Take “ChAdOx1 penton protein (natural protein)”: the stoichiometry N in experiment [4] was 5.

Source of the values: publication doi:10.1101/2021.05.19.444882.
